Peptide text beside a SMILES is read from it. * marks the point of attachment. DOTA = O=C(O)CN1CCN(CC(=O)O)CCN(CC(=O)*)CCN(CC(=O)O)CC1
Experiment: Biodistribution experiments in normal mice
Type: in vivo, ddY mice
Settings: mouse, in vivo, iv
Protocol: Experiments with animals were conducted in strict accordance with the Guidelines for the Care and Use of Laboratory Animals of Kanazawa University. The animal experimental protocols used were approved by the Committee on Animal Experimentation of Kanazawa University (Permit Number: AP-132633). Biodistribution experiments were performed after an intravenous administration of each diluted tracer solution (37 kBq/100 µL) to 6-week-old male ddY mice (27–32 g, Japan SLC, Inc., Hamamatsu, Japan). To investigate the effect of an excess amount of bisphosphonate on biodistribution, alendronate (20 mg/kg) was intravenously administered to mice 1 minute before the intravenous injection of ^67Ga-DOTA-(Asp)14 or ^67Ga-DOTA-Bn-SCN-HBP. Four to six mice each were sacrificed by decapitation at 10, 60, and 180 minutes post-injection. Tissues of interest were removed and weighed. Complete left femurs were isolated as representative bone samples, radioactivity was determined using an auto well gamma counter, and counts were corrected for background radiation and physical decay during counting.

SMILES	accumulation of radioactivity in the femur (in words)
O=C(O)C[C@H](NC(=O)[C@H](CC(=O)O)NC(=O)CN1CCN(CC(=O)O)CCN(CC(=O)O)CCN(CC(=O)O)CC1)C(=O)O [67Ga-DOTA-(Asp)2, metal not drawn] ({DOTA}-Asp-Asp-OH)	hardly accumulated in the femur
O=C(O)C[C@H](NC(=O)[C@H](CC(=O)O)NC(=O)[C@H](CC(=O)O)NC(=O)[C@H](CC(=O)O)NC(=O)[C@H](CC(=O)O)NC(=O)CN1CCN(CC(=O)O)CCN(CC(=O)O)CCN(CC(=O)O)CC1)C(=O)O [67Ga-DOTA-(Asp)5, metal not drawn] ({DOTA}-DDDDD-OH)	moderate accumulation
O=C(O)C[C@H](NC(=O)[C@H](CC(=O)O)NC(=O)[C@H](CC(=O)O)NC(=O)[C@H](CC(=O)O)NC(=O)[C@H](CC(=O)O)NC(=O)[C@H](CC(=O)O)NC(=O)[C@H](CC(=O)O)NC(=O)[C@H](CC(=O)O)NC(=O)CN1CCN(CC(=O)O)CCN(CC(=O)O)CCN(CC(=O)O)CC1)C(=O)O [67Ga-DOTA-(Asp)8, metal not drawn] ({DOTA}-DDDDDDDD-OH)	higher accumulation
